The source of these data is patent US20250163176A1, “MONOCLONAL ANTIBODY AGAINST TROP2 AND USE THEREOF” (INSTITUTE OF MEDICAL BIOTECHNOLOGY, CHINESE ACADEMY OF …, priority 2022, published 2025).

In one data set the test system is small cell lung cancer. Conditions: patients, phase II; cited from earlier work.
The test system of data set [1] is recurrent and refractory triple-negative breast cancer. Conditions: patients; cited from earlier work.
In a further data set the target is T1, Trop2 (Homo sapiens, UniProt P09758).
T1 sequence (P09758 27-323): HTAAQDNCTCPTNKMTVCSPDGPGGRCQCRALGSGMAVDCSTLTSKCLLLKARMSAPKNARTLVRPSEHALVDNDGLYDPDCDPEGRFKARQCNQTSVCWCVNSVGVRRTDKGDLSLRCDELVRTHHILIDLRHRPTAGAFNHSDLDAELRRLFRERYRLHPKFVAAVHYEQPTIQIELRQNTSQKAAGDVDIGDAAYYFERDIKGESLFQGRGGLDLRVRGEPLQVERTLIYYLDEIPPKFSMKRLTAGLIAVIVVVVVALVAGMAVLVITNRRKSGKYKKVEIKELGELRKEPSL
In words: antibody titer detected by indirect ELISA. Conditions: FIG. 2. The data set is classed as binding. An excerpt: Hybridoma cell lines for detection was continuously cultured before and after cryopreservation. The antibody titer in the cell supernatant was detected by indirect ELISA.
A general note: In an ELISA, binding on a coated surface is turned into a signal by an enzyme label.

The target of data set [2] is T2, Trop2 antigen (Homo sapiens, UniProt P09758).
T2 sequence (P09758 27-323): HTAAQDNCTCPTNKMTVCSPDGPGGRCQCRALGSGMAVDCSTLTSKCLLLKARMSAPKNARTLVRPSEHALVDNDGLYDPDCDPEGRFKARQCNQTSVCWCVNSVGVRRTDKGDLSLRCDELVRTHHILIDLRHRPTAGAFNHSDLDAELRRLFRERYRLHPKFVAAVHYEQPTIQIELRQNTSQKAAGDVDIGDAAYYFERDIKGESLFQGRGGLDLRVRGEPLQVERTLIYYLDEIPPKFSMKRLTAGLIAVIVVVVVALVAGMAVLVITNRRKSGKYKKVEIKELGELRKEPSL
In words: antibody-antigen affinity analysis by Biacore method. It is filed as binding. The conditions noted are these: antibody coupled to CM5 chip, FIG. 6. On the procedure:
Amino of an anti-Trop2 antibody was coupled to a CM5 chip, with pH of 5.0, an antibody concentration of 10 μg/mL, sample injection time of 60 s, and flow rate of 10 μL/min, and a coupling amount of 378.6 RU. Trop2 antigen at different concentrations (0, 0.814, 1.628, 3.256, 6.512, 13.025, 26.05, and 52.1 μg/mL) was taken for flowing over the chip with a sample injection time of 60 s, flow rate of 30 μL/min, dissociation time of 600 s, and regeneration conditions of glycine-HCl, and pH 1.5 (100 s, 30 μL/min) to obtain Biacore affinity graphs and affinity constant. (FIG. 6)

For data set [3], the target named is T2, Trop2 antigen. In words: antibody-antigen affinity constant by ELISA. It is filed as binding. Conditions: indirect ELISA, FIG. 7. How it is done: A Trop2 antigen was diluted to three dilutions (0.1 μg/mL, 0.2 μg/mL, and 0.4 μg/mL) and coated onto ELISA plates. An anti-Trop2 monoclonal antibody was diluted to concentrations of (1, 0.2, 0.04, 0.008, 0.0016, 0.00032, 0.000064, and 0.0000128 μg/mL). An antigen-antibody reaction curve was determined using an indirect ELISA. […] The unit of Ka is M^−1. In this formula, [Ab] represents the antibody concentration corresponding to A=½Amax when the antigen concentration is [Ag]; [Ab]t represents the antibody concentration corresponding to A=½Amax when the antigen concentration is [Ag]t; [Ag] and [Ag]t represent the antigen concentrations; and n is the dilution factor between [Ag] and [Ag]t. (FIG. 7)

The test system of a further data set is tumor tissues. It is filed as in vivo, mice. How it is done: BXPC-3, MDA-MB-231, and NIH3T3 cells were inoculated in the axilla of mice at 6×10^4 cells/mouse. When the tumor volume reached […], an anti-Trop2 antibody was labeled using a Dylight 680 antibody kit. The anti-Trop2 antibody was injected via tail vein into mice at 20 mg/kg. In vivo imaging was performed at 30 min, 1 h, 2 h, 3 h, 4 h, 6 h, 8 h, 10 h, 12 h, 14 h, 24 h, 30 h, 36 h, 48 h, 60 h, 72 h, 84 h, 96 h, 108 h, 120 h, 132 h, 144 h, 156 h, 168 h, 192 h, 216 h, 240 h, and 264 h. (FIG. 11)

In data set [4] the test system is Trop2-positive cells HCC-827. In words: confocal immunofluorescence, endocytosis of antibody. The data set is classed as cell-based, human. Conditions: HCC-827, confocal microscopy, FIG. 9. How it is done:
HCC-827 cells in logarithmic growth phase were prepared into a single-cell suspension, after cell counting, which was inoculated into a cell slide at 1×10^4 cells/well/200 μL, and then incubated at 37° C. for 24 h. An anti-Trop2 antibody at 10 μg/mL, 200 μL/well, was added. For the binding of antibody to the cell surface, cells were incubated after being added with antibody IMB1636 at 4° C. for 30 min. The cells were collected for washing three times with PBS, fixed with 4% paraformaldehyde (200 μL/well) for 15 min, washed three times with PBST, permeabilized with 0.2% Triton-X100 (200 μL+100 mL PBS) for 10 min, washed three times with PBST, blocked with 5% BSA at 37° C. for 30 min. The cells were added with secondary antibody (goat anti-mouse AF488) at 3 μL+1.5 mL PBST, 200 μL/well, and incubated at 37° C. for 30 min, washed five times with PBST, stained with DAPI for 15 min, washed three times with PBST, and dropwise added with an anti-fluorescence quenching agent for observation under a confocal microscope.
For the case of endocytosis of antibody, cells were added with antibody IMB1636 and incubated at 37° C. for 2 h. […] Other steps were the same as above. Co-localization of antibody IMB1636 with lysosomes was observed. (FIG. 9)

Data set [5] relates to human lung squamous cell carcinoma tumor tissues. In words: human tumor tissue chip detection. The data set is classed as binding. Conditions: FIG. 12. How it is done:
All tumor tissue chips used in this experiment were purchased from Shanghai Outdo Biotech Co., Ltd. The main experimental steps included: slide baking, dewaxing, antigen retrieval, endogenous peroxidase blocking, primary antibody incubation, secondary antibody incubation, diaminobenzidine (DAB) developing, hematoxylin counterstaining, and slide blocking. (FIG. 12)

The next data set concerns BxPC-3. In words: binding ability of antibody to tumor cells by immunofluorescence. The conditions noted are these: BxPC-3 highly expressing Trop2, immunofluorescence, FIG. 8. The data set is classed as cell-based. On the procedure: NIH3T3, MDA-MB-231, and BXPC-3 cells were cultured on cell slides at 1×10^4 cells/well and incubated at 37° C. for 24 h. The cells after incubation were fixed with 4% paraformaldehyde for 30 min, followed by washing three times with pre-cooled PBS at 4° C., blocking with 1% BSA in PBST solution at 4° C. overnight, and adding with purified anti-Trop2 antibody at a concentration of 10 μg/mL and incubating at 4° C. overnight. An SP2/0 ascites served as a negative control. The cells were washed three times with PBST pre-cooled to 4° C., added with rhodamine-labeled goat anti-mouse IgG secondary antibody diluted 1:200 at room temperature for incubation for 1.5 h in the dark. The cells after incubation were washed three times with PBST, and one drop of 4′,6-diamidino-2-phenylindole (DAPI) (1 mg/mL) was added to each well for incubation for 10 min. Observations and photographs were taken under a fluorescence microscope. (FIG. 8)

Data set [6] has as its system tumor cell membrane that highly expresses Trop2 antigen. In words: binding ability of antibody to tumor cells by flow cytometry. It is filed as cell-based. The conditions noted are these: FIG. 10. On the procedure: BXPC-3, MDA-MB-231, and NIH 3T3 cells were separately collected at 5×10^6 cells/EP tube, washed with 100 μL of PBS containing 2% FBS pre-cooled to 4° C., and resuspended in 100 μL of PBS containing 2% FBS. Anti-Trop2 antibody at concentrations of 3, 1, 0.3, 0.1, 0.03, 0.01, and 0.003 μg/mL was separately added at 100 μL/tube, with SP2/0 ascite as a negative control. The cells were incubated at 4° C. for 1.5 h, washed with PBS containing 2% FBS, and added with 200 μL of fluorescein isothiocyanate (FITC)-labeled goat anti-mouse IgG secondary antibody (diluted 1:200) for incubation at 4° C. for 1 h in the dark. The cells were washed three times with PBS, and detected by flow cytometry. (FIG. 10)
For orientation: Flow cytometry measures light scatter and fluorescence of single cells or particles in a stream.

Data set [7] addresses T3, Trop2 antigen (human, UniProt P09758 27-274, limits assumed).
T3 construct: also called human trophoblast cell surface antigen 2; tumor-associated calcium signal transducer 2
T3 sequence (looked up): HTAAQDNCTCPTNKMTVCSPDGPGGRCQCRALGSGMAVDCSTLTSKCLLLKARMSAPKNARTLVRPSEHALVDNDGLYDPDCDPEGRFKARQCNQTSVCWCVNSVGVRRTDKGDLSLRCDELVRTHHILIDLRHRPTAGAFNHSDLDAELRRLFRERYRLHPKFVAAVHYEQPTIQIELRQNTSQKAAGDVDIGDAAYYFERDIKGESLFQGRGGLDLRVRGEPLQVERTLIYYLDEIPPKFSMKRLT
In words: indirect ELISA, Trop2 antigen coated at 0.1 µg/ml. How it is done:
(§1) A Trop2 antigen was diluted to three dilutions (0.1 μg/mL, 0.2 μg/mL, and 0.4 μg/mL) and coated onto ELISA plates. […] An antigen-antibody reaction curve was determined using an indirect ELISA. […] The unit of Ka is M⁻¹. In this formula, [Ab] represents the antibody concentration corresponding to A=½Amax when the antigen concentration is [Ag]; [Ab]t represents the antibody concentration corresponding to A=½Amax when the antigen concentration is [Ag]t; [Ag] and [Ag]t represent the antigen concentrations; and n is the dilution factor between [Ag] and [Ag]t. (FIG. 7)

Data set [8] deals with T3, Trop2 antigen. In words: indirect ELISA on plates coated with Trop2 antigen at 0.1, 0.2 and 0.4 µg/mL; Ka calculated from the antibody concentrations at half-maximal binding. How it is done: as §1
In data set [9] the target is T3, Trop2 antigen. In words: indirect ELISA, Trop2 antigen coated at 0.2 µg/ml. On the procedure: as §1
Data set [10] deals with T3, Trop2 antigen. In words: indirect ELISA, Trop2 antigen coated at 0.4 µg/ml. How it is done:
as §1

In data set [11] the target is T3, Trop2 antigen. In words: Biacore SPR; antibody amine-coupled to CM5 chip, Trop2 antigen as analyte. On the procedure: Amino of an anti-Trop2 antibody was coupled to a CM5 chip, with pH of 5.0, an antibody concentration of 10 μg/mL, sample injection time of 60 s, and flow rate of 10 μL/min, and a coupling amount of 378.6 RU. […] (FIG. 6)

In the case of IMMU-132, in the data set on small cell lung cancer, the clinical effective rate is 43%, the “median overall survival time” value is 9.5 months, the “median progression-free survival time” value is reported as 5.2 months and the median remission time is given as 6 months. In the data set with small cell lung cancer, the objective remission rate is reported as 19%. In [1], the “average time from administration to taking effect” value is reported as 1.9 months, the clinical effective rate is given as 46%, the objective remission rate is 30% and the overall survival time is listed as 16.6 months. Besides, the progression-free survival time in data set [1] is on record as 6 months.

B1: antibody: mouse-derived anti-Trop2 monoclonal antibody (IgG1, Kappa) from hybridoma Y1636-1, CGMCC No. 18167; VL SEQ ID NO:1, VH SEQ ID NO:9 (antibody, V domains shown)
VH: MEWSGVFIFLLSVTADVHSQVQLQQSGAELVRPGTSVKISCKASGYTFTNYWLGWVKQRPGHGLEWIGNIFPGGGYTNYNEKFKGKAILTADTSSSTAYMQLSSLTSEDSGVYFCAREGVMDYWGQGTTLTVSS
VL: MVSTPQFLVFLLFWIPASRGDILLTQSPAILSVSPGERVSFSCRASQNIGTSIHWYQQRTNGFPRLLIKYASESISGIPSRFSGSGSGTDFTLSINSVESEDIADYYCQQSYSWPFTFGSGTKLEIK
modifications: mouse IgG1/kappa constant regions, no entry
B1: in the data set with Trop2, the titer of antibody came to 8000000. In the data set with Trop2 antigen [2], this molecule gave a ka of 1.057e+06 M⁻¹ s⁻¹ and a kd of 0.0007297 s⁻¹. Moreover, in the data set with Trop2 antigen [3], the “affinity constant Ka” value turned out to be 3.9e+10 M⁻¹. For the same molecule, the “targeting of tumor tissues in vivo” value with tumor tissues (mice, in vivo imaging, FIG. 11) is listed as “highly target tumor tissues”. Also, in the data set with tumor tissues (mouse, in vivo), the “time remaining in the tumor tissue” value is recorded as “over 11 days”. Further, the “endocytosis of the antibody” value in data set [4] was “efficiently endocytose”. Moreover, in data set [5], the “binding to human tumor tissue” value is “highly and specifically bind”. Moreover, in the data set on BxPC-3, the “membrane-binding activity with tumor cell membrane” value is “high membrane-binding activity”. The “affinity activity with tumor cell membrane” value in [6] is “high affinity activity”.

B2: anti-Trop2 monoclonal antibody IMB1636 (antibody, V domains shown)
VH: QVQLQQSGAELVRPGTSVKISCKASGYTFTNYWLGWVKQRPGHGLEWIGNIFPGGGYTNYNEKFKGKAILTADTSSSTAYMQLSSLTSEDSGVYFCAREGVMDYWGQGTTLTVSS
VL: DILLTQSPAILSVSPGERVSFSCRASQNIGTSIHWYQQRTNGFPRLLIKYASESISGIPSRFSGSGSGTDFTLSINSVESEDIADYYCQQSYSWPFTFGSGTKLEIK
notes: also called mouse-derived anti-Trop2 monoclonal antibody; anti-Trop2 antibody
A word on the EC50 (read off the curve): it is the midpoint of the concentration-response curve. High values mean weaker potency, low ones greater potency. The term Kd denotes the equilibrium constant for the complex coming apart. A low value points to higher affinity. As usually defined, the koff is the rate constant with which the complex falls apart. Low values mean a long-lived complex, high ones a short-lived complex. As a reminder, the kon is the second-order rate constant of association. In the case of B2, the “EC50 (read off the curve)” value with Trop2 antigen [7], with Trop2 antigen [9] and with Trop2 antigen [10] was ~5 ng/mL in each case. In the data set with Trop2 antigen [8], the Ka was 3.9e+10 M⁻¹. This molecule showed a Kd with Trop2 antigen [11] of 484 pM. In the data set with Trop2 antigen [11], this molecule showed a koff of 0.00073 s⁻¹. The on-rate (kon) in the data set with Trop2 antigen [11] came to 1.51e+06 M⁻¹ s⁻¹.
